Experiment [1] has as its target T1, biotinylated human CD33 full-length extracellular domain (residues 18-259) with C-terminal Fc tag and Avi tag (human, UniProt P20138 18-259, biotinylated with BirA-GST (Avi tag)).
T1 construct: Bought from Evitria; also called bio.hCD33; bio.hCD33 full-length target; not shown: C-terminal Fc tag and Avi tag
Kind of experiment: SPR (ProteOn XPR36), biotinylated full-length CD33 ECD on NLC chip, DARPin at 50 nM, single trace. The method, then: Briefly, SPR measurements were performed using a ProteOn XPR36 instrument (BioRad). The running buffer was PBS pH 7.4 containing 0.005% Tween 20® (PBST). The bio.hCD33 full-length target (SEQ ID NO: 60) was immobilized on NLC chips (BioRad) to a level of 540 RU and the spliced variant (SEQ ID NO: 61) to a level of 560RU. The interaction of the 96 well purified CD33-specific binding proteins in TCE format to the full-length and the spliced variant of CD33 ECD were measured by injecting the binding protein at 50 nM with an association of 120s and dissociation of 1200s using a constant flow of […]. The target was regenerated between the individual measurements using 2M MgCl₂. The signals were double referenced against the running buffer (PBST) treated control lane.
Dissociation constants (KD) were calculated from the estimated on- and off-rates using standard procedures known to the person skilled in the art. […] The values in Table 2a are averages of multiple replicates.

The target in experiment [2] is T2, human CD33 expressed on Molm-13 tumor cells (human, UniProt P20138 18-364).
T2 construct: whole, on cells; also called CD33 expressed on the surface of cells; CD33-expressing tumor cells (Molm-13 N1)
T2 sequence (P20138 18-364): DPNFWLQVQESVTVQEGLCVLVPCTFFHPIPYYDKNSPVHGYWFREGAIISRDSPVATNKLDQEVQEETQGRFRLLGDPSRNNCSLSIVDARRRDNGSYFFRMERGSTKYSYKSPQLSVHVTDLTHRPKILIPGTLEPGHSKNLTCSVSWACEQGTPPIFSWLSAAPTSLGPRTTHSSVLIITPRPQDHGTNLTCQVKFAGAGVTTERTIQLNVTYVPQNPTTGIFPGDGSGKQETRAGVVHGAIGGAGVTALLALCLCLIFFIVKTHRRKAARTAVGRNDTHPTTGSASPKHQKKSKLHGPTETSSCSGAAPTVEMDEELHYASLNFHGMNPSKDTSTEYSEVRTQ
As to the kind of experiment: flow cytometry on MOLM13 cells.

Experiment [3] addresses T1, biotinylated human CD33 full-length …. Kind of experiment: HTRF.
Experiment [4] has as its target T2, human CD33 expressed on Molm-13 tumor …. Kind of experiment: flow cytometry on CD33-expressing Molm-13 N1 cells, anti-DARPin antibody detection. As for the experimental part: Binding of binding proteins of the invention to CD33 expressed on the surface of cells was analyzed by fluorescence activated cell sorting (FACS) flow cytometry. For this purpose. CD33-expressing tumor cells (Molm-13 N1) were seeded at 100,000 cells per well in a 96 well plate. DARPin® protein #2, DARPin protein #29, and DARPin® protein #30, in monospecific format, were titrated down In 1:5 dilution ratio starting at 2000 nM. Tumor cells were resuspended with diluted DARPin proteins and incubated for 60 minutes at 4° C. The assay was performed in PBS Including 2% fetal bovine serum without human serum albumin (HSA). After washing twice with Phosphate Buffer saline (PBS), DARPin® protein specific tumor call binding was detected by adding unlabeled primary […] (anti-rabbit 1-1-1 antibody, CePower) at 2 μg/ml. An incubation step of at least 30 minutes at 4° C. followed. Afterwards, cells were washed with PBS and a secondary goat anti-rabbit antibody labelled with Alexa Fluor 488 antibody (ThermoFisher) at 2 ug/ml was added. The same incubation conditions applied. Finally, the cells were washed twice and resuspended in Cytofix fixation buffer (BD Biosciences) for 15 min at room temperature (RT).

Experiment [5] addresses T1, biotinylated human CD33 full-length …. As to the kind of experiment: SPR (ProteOn), bio.hCD33 full length on NLC chip, DARPin at 100 nM, 1:1 Langmuir fit. As for the experimental part: Moreover, the binding affinities of two additional purified ankyrin repeat proteins on recombinant human CD33 target were measured and analyzed with a similar procedure as described above for DARPin proteins #1, #3, #6, #7-#9 and #14-#16. Briefly, bio.hCD33 was coaled on NLC chip (BioRad) to a level of 1180 RU. DARPin® protein #29 and DARPin® protein #30 were applied as analyte at a single concentration of 100 nM with a 120 s association and 1200 s dissociation phase at a constant flow of 100 ul/min. The target was regenerated with 4M MgCl2. The signals were double referenced against the running buffer (PBST-PBS pH 7.4 containing 0.005% Tween 200) treated control lane of L1 and A6. The 1:1 Langmuir model was used for the fitting.

This passage reports Kd, binding result and EC50 results from US20240317852A1 (Molecular Partners, published 2024).

T1 sequence (P20138 18-259 R69G limits assumed): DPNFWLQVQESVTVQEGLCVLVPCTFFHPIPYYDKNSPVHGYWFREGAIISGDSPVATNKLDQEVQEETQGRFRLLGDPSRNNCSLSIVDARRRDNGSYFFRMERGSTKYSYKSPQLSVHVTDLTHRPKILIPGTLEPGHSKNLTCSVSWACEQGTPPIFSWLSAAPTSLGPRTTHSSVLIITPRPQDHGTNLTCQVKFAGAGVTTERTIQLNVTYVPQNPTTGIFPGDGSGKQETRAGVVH

B1: DARPin® protein #15 in TCE format (formatted with a CD3-specific ankyrin repeat domain) (designed binder)
chain: MRGSHHHHHHGSDLGKKLLQAARAGQLDEVRELLKAGADVNAKDLIGWTPLHLAAHYGHLEIVEVLLKAGADVNAKDAQGWTPLHIAAWEGHLEIVEVLLKAGADVNAKDWTGETPLHLAAFEGHLEIVEVLLKAGADVNAQDKSGKTPADLAARAGHQDIAEVLQKAA
notes: Crude extract HTRF construct also carried a C-terminal Flag tag; not shown: which one,
In experiment [1], B1 displayed a Kd of 17 nM.

B2: DARPin® protein #5 in TCE format (formatted with a CD3-specific ankyrin repeat domain) (designed binder)
chain: MRGSHHHHHHGSDLSKKLLQAARAGQLDEVRELLKAGADVNAKDQIGQTPLHLAAQSGHLEIVEVLLKAGADVNAKDTEGWTPLHVAAWEGHLEIVEVLLKAGADVNAKDWTGETPLHLAAYQGHLEIVEVLLKAGADVNAQDKSGKTPADLAARAGHQDIAEVLQKAA
notes: as for B1
Molecule B2 gave a Kd in experiment [1] of 12 nM.

B3: DARPin® protein #3 in TCE format (formatted with a CD3-specific ankyrin repeat domain) (designed binder)
chain: MRGSHHHHHHGSDLGVKLLRAAFHGQDDEVRILLAAGADVNAKDTDGETPLHYAAQFGHLEIVEVLLKAGADVNAKDAYGATPLHWAAWHGHLEIVEVLLKAGADVNAQDVSGATPADLAAKVGHEDIAEVLQKAA
notes: as for B1
Regarding B3, the Kd in experiment [1] was 7.4 nM.

B4: DARPin® protein #8 in TCE format (formatted with a CD3-specific ankyrin repeat domain) (designed binder)
chain: MRGSHHHHHHGSDLGWKLLSAATLGQDDEVRILLAAGADVNAKDEWGKTPLHWAASTGHLEIVEVLLKAGADVNAKDLWGHTPLHEAAAKGHLEIVEVLLKAGADGNAQDNIGDTPADLAAYQGHEDIAEVLQKAA
notes: as for B1
In experiment [1], B4 showed a Kd of 2.3 nM.

B5: DARPin® protein #9 in TCE format (formatted with a CD3-specific ankyrin repeat domain) (designed binder)
chain: MRGSHHHHHHGSDLGYKLLWAASAGQDDEVRILLAAGADVNAKDKDGATPLHFAAAKGHLEIVEVLLKAGADVNAKDNRGATPLHYVAAASGHLEIVEVLLKAGADVNAQDEWGNTPADLAAIYGHGDIAEVLQKAA
notes: as for B1
In experiment [1], B5 yielded a Kd of 0.76 nM.

B6: DARPin® protein #10 (engineered variant of DARPin® protein #9) (designed binder)
chain: DLGYKLLWAASAGQDDEVRELLKAGADVNAKDKDGATPLHFAAAKGHLEIVEVLLKAGADVNAKDNRGATPLHYAAASGHLEIVEVLLKAGADVNAQDEWGNTPADLAAIYGHGDIAEVLQKAA
Turning to B6, the binding result in experiment [2] and in experiment [3] was “binds” throughout.

B7: DARPin® protein #13 (engineered variant of DARPin® protein #9) (designed binder)
chain: DLGYKLLWAASAGQDDEVRELLKAGADVNAKDKDGATPLHFAAAKGHLEIVEVLLKAGADVNAKDNRGATPLHYAAASGHLEIVEVLLKAGADVNAQDEWGNTPADLAAIYGHEDIAEVLQKAA
For B7, the binding result in experiment [2] and in experiment [3] was “binds” throughout.

B8: DARPin® protein #7 in TCE format (formatted with a CD3-specific ankyrin repeat domain) (designed binder)
chain: MRGSHHHHHHGSDLGLKLLRAAYDGQDDEVRILLAAGADVNAKDWQGFTPLHYAAVLGHLEIVEVLLKAGADVNAKDQEGATPLHLAALHGHLEIVEVLLKAGADVNAQDESGWTPADLAAKWGHEDIAEVLQKAA
notes: as for B1
Take B8: the Kd in experiment [1] amounted to 0.47 nM.

B9: DARPin® protein #14 in TCE format (formatted with a CD3-specific ankyrin repeat domain) (designed binder)
chain: MRGSHHHHHHGSDLGWKLLNAAIAGQDDEVRILLAAGADVNAKDTEYGWTPLHIAASDGHLEIVEVLLKAGADVNAKDYAGSTPLHAAAFVGHLEIVEVLLKAGADVNAQDHQGQTPADLAAQQGHVDIAEVLQKAA
notes: as for B1
In the case of B9, in experiment [1], the dissociation constant (Kd) was 0.64 nM.

B10: DARPin® protein #11 (engineered variant of DARPin® protein #9) (designed binder)
chain: DLGYKLLWAASAGQDDEVRELLKAGADVNAKDKDGATPLHFAAAKGHLEIVEVLLKAGADVNAKDNRGATPLHYVAAASGHLEIVEVLLKAGADVNAQDEWGNTPADLAAIYGHEDIAEVLQKAA
Turning to B10, the binding result in experiment [2] and in experiment [3] was “binds” in each case.

B11: DARPin® protein #12 (engineered variant of DARPin® protein #9) (designed binder)
chain: DLGVKLLWAASAGQDDEVRELLKAGADVNAKDKDGATPLHFAAAKGHLEIVEVLLKAGADVNAKDNRGATPLHYVAAASGHLEIVEVLLKAGADVNAQDEWGNTPADLAAIYGHGDIAEVLQKAA
Consider B11, for which the binding result in experiment [2] and in experiment [3] was “binds” each time.

B12: DARPin® protein #29 in monospecific (single domain) format (designed binder)
chain: MRGSHHHHHHGSDLGVKLLLAAERGQLDEVRILLKAGADVNAKDIAEGYTPLHIAAYQGHLEIVEVLLKAGADVNAKDRYGKTPLHLAAIGGHLEIVEVLLKAGADVNAQDNKGSTPADLAADYGHQDIAEVLQKAA
notes: the same molecule is used here
In experiment [4], B12 displayed an EC50 of 0.32 nM. This molecule also registered a Kd in experiment [5] of 0.62 nM.

B13: DARPin® protein #30 in monospecific (single domain) format (designed binder)
chain: MRGSHHHHHHGSDLGKKLLLAAERGQLDEVRILLKAGADVNAKDRAEGYTPLHIAAYQGHLEIVEVLLKAGADVNAKDRYGKTPLHLAAISGHLEIVEVLLKAGADVNAQDNKGSTPADLAADYGHQDIAEVLQKAA
notes: as for B12
Take B13: in experiment [4], the response was half-maximal at 1.9 nM (EC50). For the same molecule, binding in experiment [5] was put at a Kd of 0.88 nM.

B14: DARPin® protein #2 in monospecific (single domain) format (designed binder)
chain: MRGSHHHHHHGSDLGVKLLLAASRGQLDEVRILLKAGADVNAKDIDEGYTPLHIAAYYGHLEIVEVLLKAGADVNAKDRYGKTPLHLAAISGHLEIVEVLLKAGADVNAQDDKGDTPADLAADYGHQDIAEVLQKAA
In experiment [4], B14 showed an EC50 of 1.2 nM.

B15: DARPin® protein #1 in TCE format (formatted with a CD3-specific ankyrin repeat domain) (designed binder)
chain: MRGSHHHHHHGSDLGWKLLLAASRGQDDEVRILLAAGADVNAKDIDEGYTPLHIAAYYGHLEIVEVLLKAGADVNAKDRYGKTPLHLAAISGHEDIAEVLLKAGADVNAQDDKGDTPADLAADYGHEDIAEVLQKAA
notes: not shown: which one,
B15 displayed a Kd in experiment [1] of 4.8 nM.
